Results published in US20240301068A1 (BEIJING HANMI PHARMACEUTICAL, published 2024).

Assays:
[1] = molecular target: recombinant human BTLA (Sino Biological Inc.) (human, UniProt Q7Z6A9 31-157, limits assumed); assay: ELISA, plate coated with 1 ug/mL recombinant human BTLA, anti-human IgG-HRP, OD450; antibody concentration not shown
Protocol: (§1) The plate was washed 5 times with PBST, and then blocked using PBST with 1% BSA, 300 μL/well, and incubated at 25° C. for 1 hour, and then washed 5 times with PBST. […] The horseradish peroxidase-labeled anti-human IgG antibody (Chemicon, catalog number AP309P) diluted 1:10000 in PBST with 1% BSA was then added, 100 μL per well, and incubated at 25° C. for 1 hour. The plate was washed 5 times with PBST. The colorimetric substrate TMB was added, 100 μL/well, and developed at room temperature for 10 minutes. 1M H₂SO₄ was added, 100 μL/well, to stop the development. The absorbance at 450 nm was read on a microplate reader.

[2] = molecular target: T1, recombinant human PD-L1 (Sino Biological Inc.) (human, UniProt Q9NZQ7 19-239); assay: affinity determination (dissociation constant), method not stated
[3] = molecular target: T1, recombinant human PD-L1 (Sino …); assay: SPR, Biacore X100
Protocol: This instrument utilizes optical surface plasmon resonance technology to detect the association and dissociation between the molecules coated on the biochip and the molecules to be tested. Association constants and dissociation constants were analyzed and calculated by Biacore X100 evaluation software. […]

[4] = molecular target: T2, recombinant human B7-H2 (Sino Biological Inc.) (human, UniProt O75144 19-258, limits assumed); assay: ELISA, plate coated with 1 ug/mL recombinant human B7-H2, anti-human IgG-HRP, OD450; antibody concentration not shown
T2 sequence (looked up): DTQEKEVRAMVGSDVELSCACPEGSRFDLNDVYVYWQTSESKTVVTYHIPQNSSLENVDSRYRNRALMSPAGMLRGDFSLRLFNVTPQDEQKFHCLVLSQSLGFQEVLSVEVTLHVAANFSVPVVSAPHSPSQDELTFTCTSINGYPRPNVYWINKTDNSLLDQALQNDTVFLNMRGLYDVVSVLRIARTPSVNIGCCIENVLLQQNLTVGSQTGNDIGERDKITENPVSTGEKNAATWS
Protocol: as §1

[5] = molecular target: T3, recombinant human ICOS (Sino Biological Inc.) (human, UniProt Q9Y6W8 21-141); assay: ELISA, plate coated with 1 ug/mL recombinant human ICOS, anti-human IgG-HRP, OD450; antibody concentration not shown
T3 sequence (looked up): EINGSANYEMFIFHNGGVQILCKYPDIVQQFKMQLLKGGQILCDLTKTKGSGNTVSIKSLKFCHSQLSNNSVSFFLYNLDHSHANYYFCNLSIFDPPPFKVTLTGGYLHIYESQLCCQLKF
Protocol: as §1

[6] = molecular target: T4, recombinant human PD-L2 (Sino Biological Inc.) (human, UniProt Q9BQ51 20-219); assay: ELISA, plate coated with 1 ug/mL recombinant human PD-L2 (printed B7-DC), anti-human IgG-HRP, OD450; antibody concentration not shown
T4 sequence (looked up): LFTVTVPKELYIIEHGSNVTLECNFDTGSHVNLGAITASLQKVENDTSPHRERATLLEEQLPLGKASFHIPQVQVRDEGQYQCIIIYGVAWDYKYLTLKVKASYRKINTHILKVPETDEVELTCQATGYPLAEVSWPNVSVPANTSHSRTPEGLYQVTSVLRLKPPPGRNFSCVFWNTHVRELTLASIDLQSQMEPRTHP
Protocol: as §1

[7] = molecular target: recombinant human PD1 (Sino Biological Inc.) (human, UniProt Q15116 25-167); assay: ELISA, plate coated with 1 ug/mL recombinant human PD1, anti-human IgG-HRP, OD450; antibody concentration not shown
Protocol: as §1

[8] = molecular target: recombinant human CTLA4 (Sino Biological Inc.) (human, UniProt P16410 36-162); assay: ELISA, plate coated with 1 ug/mL recombinant human CTLA4, anti-human IgG-HRP, OD450; antibody concentration not shown
Protocol: as §1

[9] = molecular target: T1, recombinant human PD-L1 (Sino …); assay: direct binding ELISA, plate coated with 1 ug/mL recombinant human PD-L1, anti-human IgG-HRP, OD450; the curve rises, the sheet labels the half-maximal value IC50
Protocol: A 96-well high-adsorption ELISA plate was coated with 1 μg/mL of the recombinant human PD-L1 (Sino Biological Inc.) at 100 μL per well using carbonate buffer solution, pH=9.6 at 4° C. overnight. The plate was washed 5 times with PBST, and then blocked using PBST with 1% BSA, 300 μL/well, and incubated at 25° C. for 1 hour, and then washed 5 times with PBST. […] The horseradish peroxidase-labeled anti-human IgG antibody (Chemicon, catalog number AP309P) diluted 1:10000 in PBST with 1% BSA was then added, 100 μL per well, and incubated at 25° C. for 1 hour. The plate was washed 5 times with PBST. The colorimetric substrate TMB was added, 100 μL/well, and developed at room temperature for 10 minutes. 1M H₂SO₄ was added, 100 μL/well, to stop the development. The absorbance at 450 nm was read on a microplate reader.

[10] = molecular target: recombinant rat PD-L1 (Sino Biological Inc.) (rat, UniProt D4AE25 19-239); assay: ELISA, plate coated with 1 ug/mL recombinant rat PD-L1, anti-human IgG-HRP, OD450
Protocol: A 96-well high-adsorption ELISA plate was coated with 1 μg/mL of the recombinant human PD-L1, cynomolgus PD-L1, rat PD-L1 and mouse PD-L1 (all purchased from Sino Biological Inc.), at 100 μL per well using carbonate buffer solution, pH=9.6 at 4° C. overnight. The plate was washed 5 times with PBST, and then blocked using PBST with 1% BSA, 300 μL/well, and incubated at 25° C. for 1 hour, and then washed 5 times with PBST. The chimeric anti-human PD-L1 antibody samples serially diluted in PBST with 1% BSA were added, 100 μL/well, incubated at 25° C. for 1 hour, and then washed 5 times with PBST. The horseradish peroxidase-labeled anti-human IgG antibody (Chemicon, catalog number AP309P) diluted 1:10000 in PBST with 1% BSA was then added, 100 μL per well, and incubated at 25° C. for 1 hour. The plate was washed 5 times with PBST. The colorimetric substrate TMB was added, 100 μL/well, and developed at room temperature for 10 minutes. 1M H₂SO₄ was added, 100 μL/well, to stop the development. The absorbance at 450 nm was read on a microplate reader.

T1 sequence (Q9NZQ7 19-239 limits assumed): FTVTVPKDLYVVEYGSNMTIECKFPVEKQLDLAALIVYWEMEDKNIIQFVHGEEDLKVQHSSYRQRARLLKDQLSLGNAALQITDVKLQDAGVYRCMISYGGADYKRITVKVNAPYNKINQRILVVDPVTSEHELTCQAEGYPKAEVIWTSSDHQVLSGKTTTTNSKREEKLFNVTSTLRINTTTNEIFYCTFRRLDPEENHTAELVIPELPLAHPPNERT
Chain of recombinant rat PD-L1 (Sino Biological Inc.) (D4AE25 entry or part of it limits assumed): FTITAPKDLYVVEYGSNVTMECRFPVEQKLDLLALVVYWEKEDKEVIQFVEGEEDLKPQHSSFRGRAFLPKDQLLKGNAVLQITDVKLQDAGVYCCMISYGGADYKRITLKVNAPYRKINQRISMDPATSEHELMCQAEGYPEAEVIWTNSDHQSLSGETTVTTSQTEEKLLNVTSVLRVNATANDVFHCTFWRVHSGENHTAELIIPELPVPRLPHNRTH
Chain of recombinant human PD1 (Sino Biological Inc.) (Q15116 25-167 limits assumed): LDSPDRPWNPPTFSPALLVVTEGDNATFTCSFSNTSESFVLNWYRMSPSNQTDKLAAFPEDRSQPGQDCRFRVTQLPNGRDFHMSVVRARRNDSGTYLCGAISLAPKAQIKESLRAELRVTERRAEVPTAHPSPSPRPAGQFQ
Chain of recombinant human CTLA4 (Sino Biological Inc.) (P16410 36-162 limits assumed): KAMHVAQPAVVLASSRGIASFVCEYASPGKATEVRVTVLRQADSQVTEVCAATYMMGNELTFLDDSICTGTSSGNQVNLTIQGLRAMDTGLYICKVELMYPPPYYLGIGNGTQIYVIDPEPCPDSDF

binding result [1]: no binding
koff [2]: 0.000531 s⁻¹
Kd [3]: 1.17 nM
koff [3]: 0.000594 s⁻¹
kon [3]: 507000 M⁻¹ s⁻¹
binding result [4]: no binding
binding result [5]: no binding
binding result [6]: no binding
binding result [7]: no binding
binding result [8]: no binding
EC50 [9]: 0.021 nM
B1: chimeric anti-human PD-L1 monoclonal antibody (antibody, human IgG1, kappa, V domains shown)
VH: EVQLQQSGAELVKPGASVKLSCTASGFNIEDTYIHWVMQRPEQGLEWIGRIDPANGNTKYDPKFQGKATITADTSSNTAYLQLSSLTSEDTAVYYCGRGLGAWFAYWGQGTLVTVSA
VL: DIVMTQSHKVMSTSVGDRVTITCKASQDVHTAVAWIHQKPGQSPKLLIYSASNRYTGVPDRFTGSGSGTDFTFTISSVQAEDLAVYYCQQHYITPLTFGAGTTLELKR
notes: expressed in ExpiCHO cells; also called Chimeric mAb; Chimeric antibody
binding result [10]: no binding (tested: about 20 nM (last point on the log axis))
